Earlier results as cited in patent US20190390191A1, “CONSTRUCTING ENZYME-BASED SENSORS” (PharmaSeq, Inc., priority 2018, published 2019).

How the values were obtained:
[1] = E. coli enzyme; Boulanger et al.
[2] = for T. aquaticus; Yeh et al.

Substance: Alkaline phosphatase of E. coli: zinc-containing dimeric enzyme encoded by the phoA gene of E. coli
- Tm [1]: 97 °C

Substance: Alkaline phosphatase
- Km [2]: 840 µM
